# ± gives the uncertainty stated by the source.
# Test: amyloid nucleation score (Sup35N fusion, yeast selection) (log enrichment); library NNK1; higher = more nucleation; inactive = no reads after selection
# Outline: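 The nucleation score is the log enrichment of output over input reads, calculated with DiMSum and centred on the mode score of non-aggregating sequences. Sequences with under 100 input reads were excluded. Reads came from Illumina sequencing of plasmid inserts from psi-negative yeast expressing Sup35N fused to peptides of 20 random codons, induced 24 hours with 100 μM copper sulfate and grown 7 days at 30°C without adenine and uracil.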
row,Substance,amyloid nucleation score
1,TTTCMRYGLIVC,1.7 ± 0.52
2,NYIMTRHPPLGISLPEVGRS,-0.81 ± 0.85
3,AVYICPYLQSGNALATDMW,0.587 ± 1.1
4,AFGMSLGG,0.225 ± 0.65
5,FVPIF,-0.208 ± 0.72
6,VVQFKMWACQTFFMDLRNTM,1.56 ± 0.11
7,NYRQHHKTSRVLRLDVGTEP,-0.252 ± 0.3
8,VKSADIIVL,-0.357 ± 0.34
9,YVRWMSLAPSVQWH,1.11 ± 0.19
10,NFRLEYDLCVGLTSSHIGGL,-0.219 ± 0.48
11,LDASRNFVLLFS,0.784 ± 0.34
12,SLLTYQ,0.757 ± 0.27
13,NFRAWS,0.129 ± 0.93
14,WFIRARFTLGKRNELREVI,0.647 ± 0.64
15,SKWLIRGCL,1.6 ± 0.21
16,NDYYCFHRAIFFDTGMYFSN,-0.009 ± 0.41
17,WRLMRECTFSVS,0.137 ± 0.29
18,VLTCKE,-1.55 ± 1.2
19,KVWSGCSAPQ,2.09 ± 0.43
20,FFFALFFQRSTTRGWLSGQL,0.91 ± 0.62
21,DWRLNLVYKMSA,0.734 ± 0.75
22,FVLCFFLACGITRNGMPCMV,1.26 ± 0.76

row,Substance,amyloid nucleation score
1,FTFSTGLLFYMFLYGWVH,-0.62 ± 0.34
2,LQFLSGYNC,0.293 ± 0.49
3,VFWGL,0.072 ± 0.47
4,TAVVENCLPIWVVYSSKMY,0.018 ± 0.6
5,LASHHLACCYPNLSTSYLNP,-0.118 ± 0.84
6,EISVKECGGSLDYNANLRDR,inactive
7,IVWFCINDTASVVLKTLLSH,1.36 ± 0.78
8,GDYSCPLGNIINHDPMLFRW,0.107 ± 0.23
9,KGFFNAITGDKIPRPSRDRR,0.174 ± 0.48
10,FTYSLFCAYI,1.18 ± 0.66
11,TSTVG,inactive
12,LSHVKTTRLMPLET,-1.11 ± 1.7
13,ILVLYSVRWIEATR,-0.224 ± 0.35
14,TVSIGDVTRFVMAVASTTF,0.18 ± 1.1
15,RQNVQWR,1.86 ± 0.62
16,ATREQDFWWFDER,-1.48 ± 1.2
17,AISVWMSMNGPITPDR,0.907 ± 0.59
18,ATAVYMSVLMVPDLRMKAEG,1.5 ± 0.7
19,LIRNINHWASYRFFCNCSSW,6.443 ± 0.06
20,IELPRFYILVNFYGTLSLSL,3.83 ± 0.12
21,LIVNLDMTSVLHVSGELR,5.22 ± 0.078
22,SLQISCQWYAVWGHMLLSDF,inactive

row,Substance,amyloid nucleation score
1,RSPIGGLLWINLRSPACEWG,inactive
2,PYWSDKWVFCRLKVVFIHVL,-0.066 ± 0.69
3,QTNMMSTHHP,0.39 ± 0.41
4,CESGW,-0.115 ± 1.2
5,LQRGQVLALADSRFCVRCSR,1.02 ± 0.57
6,NNYYA,-0.616 ± 0.52
7,HRGTDLSLRSWVDWLHTLRG,0.67 ± 0.57
8,ILGQYGALYSIGTHWFLFVI,-0.755 ± 0.37
9,NISVVGSSING,0.713 ± 0.23
10,LFVRKVIYVDR,0.379 ± 0.33
11,LSSRHVAGYQEYLNDL,-0.88 ± 0.72
12,VKVCMGLGYSGLMLGGLWDS,-0.491 ± 1.9
13,SILCESFVGCLDAMRDRVYY,-0.036 ± 0.61
14,WVARVMCRKNSYSMLIMWIC,-0.102 ± 0.22
15,NARWSGISFQC,-0.115 ± 0.87
16,AILRSAM,0.284 ± 0.46
17,RGNDLFTQVASMKSV,-0.207 ± 0.55
18,MEFISFTWLKYSYMYSDVFS,inactive
19,RDTNKSIQ,0.208 ± 0.56
20,SWLDLNLIDHQAFAFSSFGQ,0.183 ± 0.3
21,DTNVVWYYLSWDSPGNGDWK,inactive
22,CRLFYSWNVNMYRNMLLRWI,-0.767 ± 0.33

row,Substance,amyloid nucleation score
1,TCMWMILLFINR,0.608 ± 0.27
2,FRSNGQNLVTAISSMDVRAN,-2.14 ± 2.7
3,LKTYFGVVSRTLGLCLREEI,0.489 ± 0.43
4,WSSYTFR,0.839 ± 0.63
5,SCSLITQGFRYPWLIYHRCY,0.436 ± 0.93
6,LLYVLSTLIMYTSTMYIYQV,0.662 ± 0.51
7,GYMSRVTLVVCTMMIRRNGD,0.906 ± 0.24
8,RTSLSLSKVAFNWMFQRYSS,0.181 ± 1
9,FLVLND,0.273 ± 0.2
10,FCWLSMRAIRISSS,0.531 ± 0.44
11,GFNDGVVR,0.874 ± 0.55
12,CSQDYFIYYYPVLMLE,-0.112 ± 0.46
13,FISVMTLRLEKFEVVGDMKL,-0.43 ± 0.39
14,CFYNKRLCGRPFMLVWQNYS,0.161 ± 0.56
15,CMSSLLFD,0.921 ± 0.49
16,WFSDMTAFLC,inactive
17,LNKTSFPWLKSYKVWRNVMD,1.71 ± 0.58
18,LFIKFGTHVRYILA,-0.202 ± 0.42
19,LGYVYSKSTSSTQSLFICSG,-0.287 ± 0.26
20,GPWAGVRVRSTCLVRYSWYG,0.242 ± 0.44
21,NVHVFRNRSEITFKRASSWE,1.08 ± 0.9

# Reference: the supplement of paper PMC12042874
